Earlier results in patent publication US20090145201A1, “METHODS AND APPARATUSES FOR REDUCING EFFECTS OF MOLECULE ADSORPTION WITHIN MICROFLUIDIC CHANNELS” (EKSIGENT TECHNOLOGIES, LLC, priority 2005, published 2009).

Conditions: source: Cantor and Schimmel 1980, Biophysical Chemistry Part II

Row | Compound | Diffusion Coefficient [cm^2 · s^−1]
1 | [Cl-].[Na+] [NaCl, reference compound] | ~1.5e−5
2 | NCC(=O)O [glycine, reference compound] | 9.33e−6
3 | OC[C@H]1O[C@@](CO)(O[C@H]2O[C@H](CO)[C@@H](O)[C@H](O)[C@H]2O)[C@@H](O)[C@@H]1O [sucrose, reference compound] | 4.59e−6
4 | Bovine serum albumin | 6.01e−7
5 | Fibrinogen | 1.98e−7
6 | Myosin | 1.10e−7
7 | Tropomyosin | 2.2e−7
8 | lysozyme | 1.04e−6
